Measured values reported in publication PMC4442024 (Nature, 2015).
Values joined by “and” are separate entries in the source; they are usually repeats but may differ in a detail not shown here. Identical values can stand only once. Values belong to the molecule of their own block, whether it stands above or below them.

T1: purified recombinant Flag–STX17 (human, UniProt P56962 1-302)
T1 sequence (looked up): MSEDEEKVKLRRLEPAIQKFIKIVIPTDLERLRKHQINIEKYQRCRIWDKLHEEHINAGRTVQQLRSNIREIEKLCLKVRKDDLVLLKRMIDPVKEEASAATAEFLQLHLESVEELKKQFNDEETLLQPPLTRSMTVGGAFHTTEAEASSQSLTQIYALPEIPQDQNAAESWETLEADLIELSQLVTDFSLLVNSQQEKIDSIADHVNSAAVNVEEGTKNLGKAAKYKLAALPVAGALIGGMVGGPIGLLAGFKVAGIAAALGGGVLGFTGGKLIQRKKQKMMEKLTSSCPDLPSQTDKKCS

B1: purified recombinant Flag-tagged SNAP29 (natural protein, human, UniProt O95721 1-258, looked up)
chain: MSAYPKSYNPFDDDGEDEGARPAPWRDARDLPDGPDAPADRQQYLRQEVLRRAEATAASTSRSLALMYESEKVGVASSEELARQRGVLERTEKMVDKMDQDLKISQKHINSIKSVFGGLVNYFKSKPVETPPEQNGTLTSQPNNRLKEAISTSKEQEAKYQASHPNLRKLDDTDPVPRGAGSAMSTDAYPKNPHLRAYHQKIDSNLDELSMGLGRLKDIALGMQTEIEEQDDILDRLTTKVDKLDVNIKSTERKVRQL
B2: purified recombinant Flag-tagged VAMP8 (natural protein, human, UniProt Q9BV40 1-100, looked up)
chain: MEEASEGGGNDRVRNLQSEVEGVKNIMTQNVERILARGENLEHLRNKTEDLEATSEHFKTTSQKVARKFWWKNVKMIVLICVIVFIIILFIVLFATGAFS

Key:
[1] = target: purified recombinant ATG14 (UniProt Q6ZNE5); experiment: SEC-MALS
[2] = target: T1, purified recombinant Flag–STX17; experiment: SEC
[3] = target: B1; experiment: SEC

stoichiometry N [1]: 2 and 4
Molecule: purified recombinant ATG14 (from UniProt Q6ZNE5 1-492) (natural protein; other documents disagree on this pair)

Molecule: B1
binding result [2]: binds

Molecule: B2
binding result [3]: binds
